Earlier results as cited in patent US12128089B2 (Slayback Pharma LLC, priority 2022, dated 2024).
Read-outs that look alike come from different tables or passages of the source.

Key:
[1] = neutral aqueous solution
[2] = not given; remark: listed apart in the source
[3] = not given; remark: listed apart in the source
[4] = dilute aqueous solutions, random coil conformation

Substance: Glucagon
- Solubility in aqueous solutions (pH less than 3 or greater than 9): > 10000 µg/mL
- Solubility in aqueous solutions (pH range of 4 to 8): < 100 µg/mL
- Precipitation after preparation [1]: precipitates within an hour of preparation
- Onset of action post injection [2]: 5 to 20 min
- Half-life in plasma [3]: 3 to 6 min
- α-helix at the C-terminal end [4]: 15%
